By Kd is commonly meant the concentration at which binding is half-saturated.

Experiment in all cases: EMSA
In general terms: Mobility shift assays separate free from complexed probe on a gel.

In data set [1] the target is UV-DDB (DDB1-DDB2 heterodimer) (Homo sapiens) (UniProt Q16531+Q92466). Conditions: N at position 20 of strand 1 = tetrahydrofuran (abasic analog), opposite T.
Data set [2] addresses OGG1 (Homo sapiens, UniProt O15527 1-345).
The target of data set [3] is UV-DDB (DDB1-DDB2 heterodimer) (Homo sapiens, UniProt Q16531;Q92466 1-1140;1-427).
Sequence of UV-DDB (DDB1-DDB2 heterodimer) (Q16531 whole entry, chain 1 of 2): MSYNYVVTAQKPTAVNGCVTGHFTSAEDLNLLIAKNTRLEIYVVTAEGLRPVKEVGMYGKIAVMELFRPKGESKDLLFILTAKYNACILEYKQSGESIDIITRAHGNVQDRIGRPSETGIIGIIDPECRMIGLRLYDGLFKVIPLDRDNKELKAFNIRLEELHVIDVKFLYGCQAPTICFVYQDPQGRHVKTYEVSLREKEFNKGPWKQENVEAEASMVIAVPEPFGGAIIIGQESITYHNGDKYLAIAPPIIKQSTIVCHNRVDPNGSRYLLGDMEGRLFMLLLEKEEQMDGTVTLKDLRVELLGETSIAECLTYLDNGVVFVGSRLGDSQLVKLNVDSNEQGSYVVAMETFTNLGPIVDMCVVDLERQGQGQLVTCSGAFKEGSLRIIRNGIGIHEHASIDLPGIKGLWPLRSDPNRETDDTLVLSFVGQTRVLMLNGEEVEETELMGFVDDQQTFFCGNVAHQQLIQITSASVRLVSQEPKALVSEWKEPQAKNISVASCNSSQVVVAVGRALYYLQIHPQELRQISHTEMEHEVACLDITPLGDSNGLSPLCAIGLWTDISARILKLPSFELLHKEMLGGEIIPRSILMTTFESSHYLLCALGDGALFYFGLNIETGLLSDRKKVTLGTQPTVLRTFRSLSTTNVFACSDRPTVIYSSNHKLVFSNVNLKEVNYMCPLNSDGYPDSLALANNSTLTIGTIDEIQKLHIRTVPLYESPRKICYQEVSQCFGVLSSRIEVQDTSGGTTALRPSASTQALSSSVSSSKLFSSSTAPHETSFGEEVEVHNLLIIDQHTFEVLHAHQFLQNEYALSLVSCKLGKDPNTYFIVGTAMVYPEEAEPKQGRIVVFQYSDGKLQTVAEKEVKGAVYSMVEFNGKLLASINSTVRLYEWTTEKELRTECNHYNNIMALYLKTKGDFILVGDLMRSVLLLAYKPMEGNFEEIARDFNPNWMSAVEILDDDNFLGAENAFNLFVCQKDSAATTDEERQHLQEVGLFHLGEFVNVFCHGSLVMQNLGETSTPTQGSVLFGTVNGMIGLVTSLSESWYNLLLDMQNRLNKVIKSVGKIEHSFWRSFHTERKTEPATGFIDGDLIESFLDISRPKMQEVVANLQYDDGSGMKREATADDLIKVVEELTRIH
Sequence of UV-DDB (DDB1-DDB2 heterodimer) (Q92466 whole entry, chain 2 of 2): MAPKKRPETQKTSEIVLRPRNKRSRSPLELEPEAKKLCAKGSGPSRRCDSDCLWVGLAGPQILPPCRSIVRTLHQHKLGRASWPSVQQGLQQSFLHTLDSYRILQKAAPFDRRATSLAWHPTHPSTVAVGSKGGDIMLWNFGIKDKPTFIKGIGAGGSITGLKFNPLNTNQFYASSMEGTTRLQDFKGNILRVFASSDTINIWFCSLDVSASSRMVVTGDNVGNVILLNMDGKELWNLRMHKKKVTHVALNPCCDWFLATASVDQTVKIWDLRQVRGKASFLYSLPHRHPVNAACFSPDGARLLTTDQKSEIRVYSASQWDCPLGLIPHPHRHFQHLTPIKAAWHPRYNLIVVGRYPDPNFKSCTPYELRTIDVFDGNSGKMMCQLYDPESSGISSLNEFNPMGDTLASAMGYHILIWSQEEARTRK

Sequence of UV-DDB (DDB1-DDB2 heterodimer) (Homo sapiens) (Q16531 whole entry, chain 1 of 2): as the sequence (Q16531 whole entry, chain 1 of 2) above
Sequence of UV-DDB (DDB1-DDB2 heterodimer) (Homo sapiens) (Q92466 whole entry, chain 2 of 2): as the sequence (Q92466 whole entry, chain 2 of 2) above
Sequence of OGG1 (O15527 whole entry): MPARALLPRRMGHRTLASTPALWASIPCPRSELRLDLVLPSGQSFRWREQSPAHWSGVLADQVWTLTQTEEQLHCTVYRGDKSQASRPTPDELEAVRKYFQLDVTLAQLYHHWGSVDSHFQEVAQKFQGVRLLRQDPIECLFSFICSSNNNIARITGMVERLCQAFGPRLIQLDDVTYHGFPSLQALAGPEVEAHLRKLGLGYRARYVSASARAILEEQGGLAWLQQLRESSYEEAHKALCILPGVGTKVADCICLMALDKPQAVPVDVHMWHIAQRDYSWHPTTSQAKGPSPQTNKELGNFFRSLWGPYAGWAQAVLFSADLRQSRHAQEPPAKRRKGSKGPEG

Molecule “CCGAGTCATTCCTGCAGCGNGTCCATGGGAGTCAAAT / ATTTGACTCCCATGGACTCGCTGCAGGAATGACTCGG [THF37]” displayed a Kd in data set [1] of 3.9 nM.

B1: 8-oxoG37(G:C) (dsDNA)
DNA 1: CCGAGTCATTCCTGCAGCGAGTCCATGGGAGTCAAAT
DNA 2: ATTTGACTCCCATGGACTCGCTGCAGGAATGACTCGG
modifications: 8-oxoG at position 21 of strand 1 (printed as Z), opposite C
For B1, in data set [2], the binding signal is ~3 fold lower affinity than THF37. For the same molecule, the Kd in data set [3] stood at 160 ± 12.4 nM.

B2: UD37 (dsDNA)
DNA 1: CCGAGTCATTCCTGCAGCGAGTCCATGGGAGTCAAAT
DNA 2: ATTTGACTCCCATGGACTCGCTGCAGGAATGACTCGG
As for B2, binding in data set [3] was put at a Kd of 1110 ± 95.5 nM.

B3: 8-oxoG37(G:A) (dsDNA)
DNA 1: CCGAGTCATTCCTGCAGCGAGTCCATGGGAGTCAAAT
DNA 2: ATTTGACTCCCATGGAATCGCTGCAGGAATGACTCGG
modifications: 8-oxoG at position 21 of strand 1 (printed as Z), opposite A
As for B3, in data set [3], the Kd stood at 164 ± 14.8 nM.

For the origin of these results see paper PMC6684372.
